Reference: patent US20250327097A1, “ORGANISMS PRODUCING LESS CROTONIC ACID” (Global Bioenergies, priority 2021, published 2025)

B1: I283T-N285P-N287T-Q290E-S322T-N388M-K394R-C430A-i430aH-L432F-L434W-S436N-dG462 (protein)
chain: MFLKSLREQINLLKRQGDLRIINRPVDSYLEAAAIIRRSTETKAPVPLMTNIKGYPGCSIVGGLAALSSNPEYPLSRVAMSLGLSTTASAQSIVQYLIDGLKKTPYLPVEIDSNSAPCKQNILRGEDASLAHFPIPQVHQHDGNRYVNTWGVFIVESPDGQWCNWSIQRVQYLNDRQMIALVFPSQHISDIWEEWVKIGKPMPYALVQGCEPIVPYIAGLPLLERNVNEAEYIGALYGKGIEVVKCETHDLRVPASSEVVIEGYFAITREGVEGPFGEFAGYTPPETSLEPILSITAISWQDDPIWPVVAEGKPVDEYHTCTGIGDAAAIQNVLLTANLPVSFVWVPLYSACHLMIVSINRHWRQTHPDLTSEQLTKKVGDVIHQTRMSIKLPRIVVLDDDVDPADTESLLWALATRIHPERKRYFYESAIFPWLNCYSEEERHNRKGKRVIIDALLPENHGAISSFDYAYPDDIKQRVLMHWETDFSHD
B2: I283T-N285P-N287T-Q290E-S322T-N388M-K394R-C430A-L432F-L434W-S436N-i443aR-dG462 (protein)
chain: MFLKSLREQINLLKRQGDLRIINRPVDSYLEAAAIIRRSTETKAPVPLMTNIKGYPGCSIVGGLAALSSNPEYPLSRVAMSLGLSTTASAQSIVQYLIDGLKKTPYLPVEIDSNSAPCKQNILRGEDASLAHFPIPQVHQHDGNRYVNTWGVFIVESPDGQWCNWSIQRVQYLNDRQMIALVFPSQHISDIWEEWVKIGKPMPYALVQGCEPIVPYIAGLPLLERNVNEAEYIGALYGKGIEVVKCETHDLRVPASSEVVIEGYFAITREGVEGPFGEFAGYTPPETSLEPILSITAISWQDDPIWPVVAEGKPVDEYHTCTGIGDAAAIQNVLLTANLPVSFVWVPLYSACHLMIVSINRHWRQTHPDLTSEQLTKKVGDVIHQTRMSIKLPRIVVLDDDVDPADTESLLWALATRIHPERKRYFYESAIFPWLNCYSEEERHNRKGKRVIIDALLPENHGAISSFDYAYPDDIKQRVLMHWETDFSHD
B3: I283T-N285P-N287T-Q290E-S322T-N388M-K394R-C430A-L432F-L434W-S436N-i444aH-dG462 (protein)
chain: MFLKSLREQINLLKRQGDLRIINRPVDSYLEAAAIIRRSTETKAPVPLMTNIKGYPGCSIVGGLAALSSNPEYPLSRVAMSLGLSTTASAQSIVQYLIDGLKKTPYLPVEIDSNSAPCKQNILRGEDASLAHFPIPQVHQHDGNRYVNTWGVFIVESPDGQWCNWSIQRVQYLNDRQMIALVFPSQHISDIWEEWVKIGKPMPYALVQGCEPIVPYIAGLPLLERNVNEAEYIGALYGKGIEVVKCETHDLRVPASSEVVIEGYFAITREGVEGPFGEFAGYTPPETSLEPILSITAISWQDDPIWPVVAEGKPVDEYHTCTGIGDAAAIQNVLLTANLPVSFVWVPLYSACHLMIVSINRHWRQTHPDLTSEQLTKKVGDVIHQTRMSIKLPRIVVLDDDVDPADTESLLWALATRIHPERKRYFYESAIFPWLNCYSEEERHNRKGKRVIIDALLPENHGAISSFDYAYPDDIKQRVLMHWETDFSHD
B4: V382A-N388M-K394R-C430N-L432F-L434W-S436N (protein)
chain: MFLKSLREQINLLKRQGDLRIINRPVDSYLEAAAIIRRSTETKAPVPLMTNIKGYPGCSIVGGLAALSSNPEYPLSRVAMSLGLSTTASAQSIVQYLIDGLKKTPYLPVEIDSNSAPCKQNILRGEDASLAHFPIPQVHQHDGNRYVNTWGVFIVESPDGQWCNWSIQRVQYLNDRQMIALVFPSQHISDIWEEWVKIGKPMPYALVQGCEPIVPYIAGLPLLERNVNEAEYIGALYGKGIEVVKCETHDLRVPASSEVVIEGYFAITREGVEGPFGEFAGYIPNENSLQPILSITAISWQDDPIWPVVAEGKPVDEYHTCSGIGDAAAIQNVLLTANLPVSFVWVPLYSACHLMIVSINRHWRQTHPDLTSEQLTKKVGDAIHQTRMSIKLPRIVVLDDDVDPADTESLLWALATRIHPERKRYFYESNIFPWLNCYSEEERHNRKGKRVIIDALLPENHGAISSFDYAYPDDIKQRVLMHWETDFSHD
B5: I283T-N285P-N287T-Q290E-S322T-N388M-K394R-C430A-L432F-L434W-S436N-i443aL-dG462 (protein)
chain: MFLKSLREQINLLKRQGDLRIINRPVDSYLEAAAIIRRSTETKAPVPLMTNIKGYPGCSIVGGLAALSSNPEYPLSRVAMSLGLSTTASAQSIVQYLIDGLKKTPYLPVEIDSNSAPCKQNILRGEDASLAHFPIPQVHQHDGNRYVNTWGVFIVESPDGQWCNWSIQRVQYLNDRQMIALVFPSQHISDIWEEWVKIGKPMPYALVQGCEPIVPYIAGLPLLERNVNEAEYIGALYGKGIEVVKCETHDLRVPASSEVVIEGYFAITREGVEGPFGEFAGYTPPETSLEPILSITAISWQDDPIWPVVAEGKPVDEYHTCTGIGDAAAIQNVLLTANLPVSFVWVPLYSACHLMIVSINRHWRQTHPDLTSEQLTKKVGDVIHQTRMSIKLPRIVVLDDDVDPADTESLLWALATRIHPERKRYFYESAIFPWLNCYSEEERHNRKGKRVIIDALLPENHGAISSFDYAYPDDIKQRVLMHWETDFSHD
B6: I283T-N285P-N287T-Q290E-S322T-N388M-K394R-C430A-L432F-L434W-S436N-i438aD-dG462 (protein)
chain: MFLKSLREQINLLKRQGDLRIINRPVDSYLEAAAIIRRSTETKAPVPLMTNIKGYPGCSIVGGLAALSSNPEYPLSRVAMSLGLSTTASAQSIVQYLIDGLKKTPYLPVEIDSNSAPCKQNILRGEDASLAHFPIPQVHQHDGNRYVNTWGVFIVESPDGQWCNWSIQRVQYLNDRQMIALVFPSQHISDIWEEWVKIGKPMPYALVQGCEPIVPYIAGLPLLERNVNEAEYIGALYGKGIEVVKCETHDLRVPASSEVVIEGYFAITREGVEGPFGEFAGYTPPETSLEPILSITAISWQDDPIWPVVAEGKPVDEYHTCTGIGDAAAIQNVLLTANLPVSFVWVPLYSACHLMIVSINRHWRQTHPDLTSEQLTKKVGDVIHQTRMSIKLPRIVVLDDDVDPADTESLLWALATRIHPERKRYFYESAIFPWLNCYSEEERHNRKGKRVIIDALLPENHGAISSFDYAYPDDIKQRVLMHWETDFSHD
B7: I283T-N285P-N287T-Q290E-S322T-N388M-K394R-C430A-L432F-L434W-S436N-i443aT-dG462 (protein)
chain: MFLKSLREQINLLKRQGDLRIINRPVDSYLEAAAIIRRSTETKAPVPLMTNIKGYPGCSIVGGLAALSSNPEYPLSRVAMSLGLSTTASAQSIVQYLIDGLKKTPYLPVEIDSNSAPCKQNILRGEDASLAHFPIPQVHQHDGNRYVNTWGVFIVESPDGQWCNWSIQRVQYLNDRQMIALVFPSQHISDIWEEWVKIGKPMPYALVQGCEPIVPYIAGLPLLERNVNEAEYIGALYGKGIEVVKCETHDLRVPASSEVVIEGYFAITREGVEGPFGEFAGYTPPETSLEPILSITAISWQDDPIWPVVAEGKPVDEYHTCTGIGDAAAIQNVLLTANLPVSFVWVPLYSACHLMIVSINRHWRQTHPDLTSEQLTKKVGDVIHQTRMSIKLPRIVVLDDDVDPADTESLLWALATRIHPERKRYFYESAIFPWLNCYSEEERHNRKGKRVIIDALLPENHGAISSFDYAYPDDIKQRVLMHWETDFSHD
B8: I283T-N285P-N287T-Q290E-S322T-N388M-K394R-C430A-L432F-L434W-S436N-i443aV-dG462 (protein)
chain: MFLKSLREQINLLKRQGDLRIINRPVDSYLEAAAIIRRSTETKAPVPLMTNIKGYPGCSIVGGLAALSSNPEYPLSRVAMSLGLSTTASAQSIVQYLIDGLKKTPYLPVEIDSNSAPCKQNILRGEDASLAHFPIPQVHQHDGNRYVNTWGVFIVESPDGQWCNWSIQRVQYLNDRQMIALVFPSQHISDIWEEWVKIGKPMPYALVQGCEPIVPYIAGLPLLERNVNEAEYIGALYGKGIEVVKCETHDLRVPASSEVVIEGYFAITREGVEGPFGEFAGYTPPETSLEPILSITAISWQDDPIWPVVAEGKPVDEYHTCTGIGDAAAIQNVLLTANLPVSFVWVPLYSACHLMIVSINRHWRQTHPDLTSEQLTKKVGDVIHQTRMSIKLPRIVVLDDDVDPADTESLLWALATRIHPERKRYFYESAIFPWLNCYSEEERHNRKGKRVIIDALLPENHGAISSFDYAYPDDIKQRVLMHWETDFSHD
B9: I283T-N285P-N287T-Q290E-S322T-N388M-K394R-C430A-L432F-L434W-S436N-i444aP-dG462 (protein)
chain: MFLKSLREQINLLKRQGDLRIINRPVDSYLEAAAIIRRSTETKAPVPLMTNIKGYPGCSIVGGLAALSSNPEYPLSRVAMSLGLSTTASAQSIVQYLIDGLKKTPYLPVEIDSNSAPCKQNILRGEDASLAHFPIPQVHQHDGNRYVNTWGVFIVESPDGQWCNWSIQRVQYLNDRQMIALVFPSQHISDIWEEWVKIGKPMPYALVQGCEPIVPYIAGLPLLERNVNEAEYIGALYGKGIEVVKCETHDLRVPASSEVVIEGYFAITREGVEGPFGEFAGYTPPETSLEPILSITAISWQDDPIWPVVAEGKPVDEYHTCTGIGDAAAIQNVLLTANLPVSFVWVPLYSACHLMIVSINRHWRQTHPDLTSEQLTKKVGDVIHQTRMSIKLPRIVVLDDDVDPADTESLLWALATRIHPERKRYFYESAIFPWLNCYSEEERHNRKGKRVIIDALLPENHGAISSFDYAYPDDIKQRVLMHWETDFSHD
B10: I283T-N285P-N287T-Q290E-S322T-N388M-K394R-C430A-L432F-L434W-S436N-i444aV-dG462 (protein)
chain: MFLKSLREQINLLKRQGDLRIINRPVDSYLEAAAIIRRSTETKAPVPLMTNIKGYPGCSIVGGLAALSSNPEYPLSRVAMSLGLSTTASAQSIVQYLIDGLKKTPYLPVEIDSNSAPCKQNILRGEDASLAHFPIPQVHQHDGNRYVNTWGVFIVESPDGQWCNWSIQRVQYLNDRQMIALVFPSQHISDIWEEWVKIGKPMPYALVQGCEPIVPYIAGLPLLERNVNEAEYIGALYGKGIEVVKCETHDLRVPASSEVVIEGYFAITREGVEGPFGEFAGYTPPETSLEPILSITAISWQDDPIWPVVAEGKPVDEYHTCTGIGDAAAIQNVLLTANLPVSFVWVPLYSACHLMIVSINRHWRQTHPDLTSEQLTKKVGDVIHQTRMSIKLPRIVVLDDDVDPADTESLLWALATRIHPERKRYFYESAIFPWLNCYSEEERHNRKGKRVIIDALLPENHGAISSFDYAYPDDIKQRVLMHWETDFSHD

System: 3-methylcrotonic acid
Assay type: biochemical, Yersinia frederiksenii
Set-up: key: “+” representing a low increase in activity; “++++” representing a high increase in activity

Row | Molecule | Activity relative to WT
1 | B1 | ++++
2 | B2 | ++++
3 | B3 | ++++
4 | B4 | +
5 | B5 | ++++
6 | B6 | ++++
7 | B7 | ++++
8 | B8 | ++++
9 | B9 | ++++
10 | B10 | ++++
